Data on 125 sequences can be found in the supplement of paper PMC9112550, “Optimization of the antimicrobial peptide Bac7 by deep mutational scanning” (BMC Biology, 2022).

In this series the test system is Escherichia coli TOP10. The series can be described thus: shrunken log2 fold change of peptide-encoding DNA abundance (4.5 h post-induction vs induction); higher = less antimicrobial activity (less host growth inhibition). The following applies: time post-induction: 4.5 h; library: site-saturation at positions 5, 18, 19, 20.
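Further: peptides expressed intracellularly from a pBAD plasmid library in pooled LB shake-flask culture, induced with 0.3% L-arabinose, DNA abundance read by NGS, three biological replicates, DESeq2 with apeglm shrinkage.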

RRIRARPPRLPRPRPRPGFMPRP: the “shrunken log2 fold change” value turned out to be 0.14.

Regarding RRIRRRPPRLPRPRPRPGHPPRP, the “shrunken log2 fold change” value was determined as 0.237.

For RRIRGRPPRLPRPRPRPERCPRP, the “shrunken log2 fold change” value turned out to be 0.203.

RRIRSRPPRLPRPRPRPRKSPRP: the “shrunken log2 fold change” value came out at 0.139.

With RRIRHRPPRLPRPRPRPPCAPRP, the “shrunken log2 fold change” value turned out to be 0.228.

Regarding RRIRTRPPRLPRPRPRPQNYPRP, the “shrunken log2 fold change” value was -0.311.

On to RRIRVRPPRLPRPRPRPQIRPRP, for which the “shrunken log2 fold change” value is -0.305.

In the case of RRIRARPPRLPRPRPRPTHFPRP, the “shrunken log2 fold change” value came to 0.809.

For the sequence RRIRMRPPRLPRPRPRPCCFPRP, the “shrunken log2 fold change” value is 0.116.

In the case of RRIRIRPPRLPRPRPRPAYRPRP, the “shrunken log2 fold change” value is -0.611.

With RRIRVRPPRLPRPRPRPFCIPRP, the “shrunken log2 fold change” value is -0.447.

For RRIRLRPPRLPRPRPRPYDTPRP, the “shrunken log2 fold change” value was -0.925.

In the case of RRIRWRPPRLPRPRPRPWPSPRP, the “shrunken log2 fold change” value was determined as 0.018.

Consider RRIRVRPPRLPRPRPRPWMFPRP, for which the “shrunken log2 fold change” value is -0.673.

On to RRIRMRPPRLPRPRPRPTYAPRP, for which the “shrunken log2 fold change” value was 0.0341.

As for RRIRSRPPRLPRPRPRPVCFPRP, the “shrunken log2 fold change” value turned out to be 0.156.

On to RRIRWRPPRLPRPRPRPPGNPRP, for which the “shrunken log2 fold change” value was determined as 0.687.

With RRIRDRPPRLPRPRPRPKGIPRP, the “shrunken log2 fold change” value was 0.0238.

Consider RRIRCRPPRLPRPRPRPGTHPRP, for which the “shrunken log2 fold change” value was -0.243.

RRIRIRPPRLPRPRPRPTTNPRP: the “shrunken log2 fold change” value is -0.463.

For RRIRCRPPRLPRPRPRPQKYPRP, the “shrunken log2 fold change” value was -0.698.

With RRIRVRPPRLPRPRPRPQTAPRP, the “shrunken log2 fold change” value stood at 0.0297.

For RRIRTRPPRLPRPRPRPMLEPRP, the “shrunken log2 fold change” value stood at 0.018.

RRIRTRPPRLPRPRPRPSLDPRP: the “shrunken log2 fold change” value was -0.286.

With RRIRGRPPRLPRPRPRPCSVPRP, the “shrunken log2 fold change” value came to 0.394.

Turning to RRIRLRPPRLPRPRPRPLRRPRP, the “shrunken log2 fold change” value stood at 0.249.

For RRIRIRPPRLPRPRPRPGHEPRP, the “shrunken log2 fold change” value turned out to be 0.018.

RRIRCRPPRLPRPRPRPTFRPRP: the “shrunken log2 fold change” value came out at 0.0981.

For the sequence RRIRSRPPRLPRPRPRPCSMPRP, the “shrunken log2 fold change” value was -0.441.

For RRIRHRPPRLPRPRPRPKCCPRP, the “shrunken log2 fold change” value was -0.0444.

In the case of RRIRVRPPRLPRPRPRPYRHPRP, the “shrunken log2 fold change” value is -1.08.

For RRIRNRPPRLPRPRPRPYSAPRP, the “shrunken log2 fold change” value was -1.37.

With RRIRSRPPRLPRPRPRPYATPRP, the “shrunken log2 fold change” value is -0.192.

Take RRIRGRPPRLPRPRPRPCNMPRP: the “shrunken log2 fold change” value was -0.0796.

In the case of RRIRTRPPRLPRPRPRPHCIPRP, the “shrunken log2 fold change” value is -0.489.

With RRIRMRPPRLPRPRPRPQKKPRP, the “shrunken log2 fold change” value is -0.0151.

Regarding RRIRYRPPRLPRPRPRPTGDPRP, the “shrunken log2 fold change” value was 0.00498.

Regarding RRIRNRPPRLPRPRPRPEFPPRP, the “shrunken log2 fold change” value is 0.0125.

In the case of RRIRRRPPRLPRPRPRPALAPRP, the “shrunken log2 fold change” value was found to be 0.516.

With RRIRVRPPRLPRPRPRPTSQPRP, the “shrunken log2 fold change” value came out at 0.00273.

In the case of RRIRFRPPRLPRPRPRPQMRPRP, the “shrunken log2 fold change” value is 0.495.

With RRIRHRPPRLPRPRPRPCQQPRP, the “shrunken log2 fold change” value was -0.0541.

Regarding RRIRSRPPRLPRPRPRPCESPRP, the “shrunken log2 fold change” value is -0.0178.

Turning to RRIRNRPPRLPRPRPRPKHAPRP, the “shrunken log2 fold change” value worked out at 0.0877.

On to RRIRYRPPRLPRPRPRPLCFPRP, for which the “shrunken log2 fold change” value is -0.727.

As for RRIRHRPPRLPRPRPRPPIHPRP, the “shrunken log2 fold change” value was -0.639.

Consider RRIRMRPPRLPRPRPRPSSVPRP, for which the “shrunken log2 fold change” value is 3.19.

In the case of RRIRERPPRLPRPRPRPAYKPRP, the “shrunken log2 fold change” value was -0.21.

With RRIRRRPPRLPRPRPRPDNPPRP, the “shrunken log2 fold change” value is -0.582.

Take RRIRDRPPRLPRPRPRPGRAPRP: the “shrunken log2 fold change” value was determined as 0.478.

With RRIRSRPPRLPRPRPRPPKVPRP, the “shrunken log2 fold change” value was -0.211.

For RRIRIRPPRLPRPRPRPRHPPRP, the “shrunken log2 fold change” value was -0.0642.

Turning to RRIRPRPPRLPRPRPRPLWIPRP, the “shrunken log2 fold change” value is -0.128.

In the case of RRIRDRPPRLPRPRPRPMIPPRP, the “shrunken log2 fold change” value is -0.184.

Regarding RRIRERPPRLPRPRPRPEMMPRP, the “shrunken log2 fold change” value was -0.269.

For RRIRNRPPRLPRPRPRPLHSPRP, the “shrunken log2 fold change” value is -0.16.

On to RRIRLRPPRLPRPRPRPMWCPRP, for which the “shrunken log2 fold change” value came to 0.214.

Consider RRIRDRPPRLPRPRPRPKSMPRP, for which the “shrunken log2 fold change” value is -0.0219.

As for RRIRNRPPRLPRPRPRPDMQPRP, the “shrunken log2 fold change” value is -0.0295.

As to RRIRSRPPRLPRPRPRPERKPRP, the “shrunken log2 fold change” value was -0.0872.

Turning to RRIRKRPPRLPRPRPRPPPDPRP, the “shrunken log2 fold change” value worked out at 0.906.

As to RRIRTRPPRLPRPRPRPACIPRP, the “shrunken log2 fold change” value came out at 0.599.

For RRIRIRPPRLPRPRPRPIIDPRP, the “shrunken log2 fold change” value was -0.372.

Take RRIRRRPPRLPRPRPRPQVTPRP: the “shrunken log2 fold change” value is -0.0275.

On to RRIRMRPPRLPRPRPRPYRKPRP, for which the “shrunken log2 fold change” value was -0.432.

In the case of RRIRHRPPRLPRPRPRPFTTPRP, the “shrunken log2 fold change” value was -0.0869.

As to RRIRNRPPRLPRPRPRPCDVPRP, the “shrunken log2 fold change” value worked out at 0.0235.

As to RRIRTRPPRLPRPRPRPETGPRP, the “shrunken log2 fold change” value was -0.00371.

For the sequence RRIRSRPPRLPRPRPRPWPFPRP, the “shrunken log2 fold change” value was found to be 0.0554.

For the sequence RRIRFRPPRLPRPRPRPASIPRP, the “shrunken log2 fold change” value is -0.231.

For RRIRKRPPRLPRPRPRPSLVPRP, the “shrunken log2 fold change” value was determined as 0.174.

Take RRIRARPPRLPRPRPRPGVVPRP: the “shrunken log2 fold change” value stood at 0.645.

In the case of RRIRNRPPRLPRPRPRPFRKPRP, the “shrunken log2 fold change” value is -0.0467.

In the case of RRIRFRPPRLPRPRPRPIRFPRP, the “shrunken log2 fold change” value is -0.233.

Consider RRIRKRPPRLPRPRPRPTSRPRP, for which the “shrunken log2 fold change” value came to 0.159.

With RRIRFRPPRLPRPRPRPTADPRP, the “shrunken log2 fold change” value is 0.359.

As to RRIRLRPPRLPRPRPRPANEPRP, the “shrunken log2 fold change” value was 0.0458.

Turning to RRIRCRPPRLPRPRPRPPQRPRP, the “shrunken log2 fold change” value was 0.94.

Regarding RRIRERPPRLPRPRPRPCIEPRP, the “shrunken log2 fold change” value was -0.155.

Consider RRIRRRPPRLPRPRPRPIREPRP, for which the “shrunken log2 fold change” value was 0.208.

Turning to RRIRERPPRLPRPRPRPPSEPRP, the “shrunken log2 fold change” value came to 0.156.

In the case of RRIRFRPPRLPRPRPRPNFEPRP, the “shrunken log2 fold change” value was -0.0264.

In the case of RRIRCRPPRLPRPRPRPNGGPRP, the “shrunken log2 fold change” value is -0.00453.

For the sequence RRIRCRPPRLPRPRPRPWNIPRP, the “shrunken log2 fold change” value was 0.0152.

Regarding RRIRTRPPRLPRPRPRPFTTPRP, the “shrunken log2 fold change” value is -0.0286.

Regarding RRIRERPPRLPRPRPRPWACPRP, the “shrunken log2 fold change” value came out at 0.0618.

As for RRIRVRPPRLPRPRPRPCCSPRP, the “shrunken log2 fold change” value was -0.192.

With RRIRMRPPRLPRPRPRPRKSPRP, the “shrunken log2 fold change” value was 0.902.

RRIRARPPRLPRPRPRPCPLPRP: the “shrunken log2 fold change” value was -0.132.

In the case of RRIRVRPPRLPRPRPRPGNNPRP, the “shrunken log2 fold change” value was -0.249.

With RRIRSRPPRLPRPRPRPKLTPRP, the “shrunken log2 fold change” value was -0.06.

For RRIRSRPPRLPRPRPRPQDDPRP, the “shrunken log2 fold change” value is -0.351.

For RRIRFRPPRLPRPRPRPNTDPRP, the “shrunken log2 fold change” value was -0.384.

In the case of RRIRHRPPRLPRPRPRPQFGPRP, the “shrunken log2 fold change” value was -0.184.

On to RRIRHRPPRLPRPRPRPEEPPRP, for which the “shrunken log2 fold change” value worked out at 0.0179.

On to RRIRYRPPRLPRPRPRPMAPPRP, for which the “shrunken log2 fold change” value is 0.025.

For RRIRFRPPRLPRPRPRPDMHPRP, the “shrunken log2 fold change” value is 0.191.

Regarding RRIRPRPPRLPRPRPRPMLFPRP, the “shrunken log2 fold change” value was -0.0744.

Take RRIRIRPPRLPRPRPRPVNEPRP: the “shrunken log2 fold change” value was -0.213.

Take RRIRLRPPRLPRPRPRPNIDPRP: the “shrunken log2 fold change” value was -0.213.

Turning to RRIRSRPPRLPRPRPRPGNSPRP, the “shrunken log2 fold change” value worked out at 0.0554.

With RRIRQRPPRLPRPRPRPLCVPRP, the “shrunken log2 fold change” value was -0.183.

RRIRGRPPRLPRPRPRPFQIPRP: the “shrunken log2 fold change” value was -0.0147.

Regarding RRIRRRPPRLPRPRPRPMVYPRP, the “shrunken log2 fold change” value was determined as 0.119.

RRIRTRPPRLPRPRPRPPIEPRP: the “shrunken log2 fold change” value is -0.0275.

For the sequence RRIRERPPRLPRPRPRPGFRPRP, the “shrunken log2 fold change” value is 0.231.

For the sequence RRIRERPPRLPRPRPRPILRPRP, the “shrunken log2 fold change” value amounted to 0.109.

In the case of RRIRYRPPRLPRPRPRPIPDPRP, the “shrunken log2 fold change” value came to 0.0657.

In the case of RRIRERPPRLPRPRPRPCTNPRP, the “shrunken log2 fold change” value was -0.559.

As for RRIRGRPPRLPRPRPRPLQFPRP, the “shrunken log2 fold change” value was determined as 0.312.

Take RRIRPRPPRLPRPRPRPDNAPRP: the “shrunken log2 fold change” value was found to be 0.0303.

As for RRIRARPPRLPRPRPRPKGCPRP, the “shrunken log2 fold change” value is 1.4.

On to RRIRSRPPRLPRPRPRPGVQPRP, for which the “shrunken log2 fold change” value was -0.0497.

With RRIRKRPPRLPRPRPRPIVQPRP, the “shrunken log2 fold change” value stood at 0.000772.

For RRIRIRPPRLPRPRPRPAWYPRP, the “shrunken log2 fold change” value was 0.0724.

For RRIRPRPPRLPRPRPRPFMLPRP, the “shrunken log2 fold change” value is -0.378.

Regarding RRIRNRPPRLPRPRPRPTYPPRP, the “shrunken log2 fold change” value is -0.275.

RRIRPRPPRLPRPRPRPLATPRP: the “shrunken log2 fold change” value was found to be 0.605.

For RRIRIRPPRLPRPRPRPDTGPRP, the “shrunken log2 fold change” value was -0.375.

As for RRIRPRPPRLPRPRPRPPMYPRP, the “shrunken log2 fold change” value was -0.368.

Consider RRIRGRPPRLPRPRPRPETSPRP, for which the “shrunken log2 fold change” value came out at 1.68.

With RRIRDRPPRLPRPRPRPNHIPRP, the “shrunken log2 fold change” value was -1.

In the case of RRIRKRPPRLPRPRPRPQHAPRP, the “shrunken log2 fold change” value turned out to be 0.232.

For RRIRERPPRLPRPRPRPTQWPRP, the “shrunken log2 fold change” value worked out at 0.00138.

For the sequence RRIRARPPRLPRPRPRPMCHPRP, the “shrunken log2 fold change” value is 0.294.
